Consider one substance from patent publication US20140030278A1.

The term IC50 denotes the point on the concentration scale where inhibition reaches its midpoint.

Assay [1] addresses Recombinant human TNF-alpha (human) (UniProt P01375). In words: ELISA of unbound rhTNF-alpha after pre-incubation; preparation 2; printed as 4.220e-009 g/ml. The settings on record: Fc fusion.
For assay [2] the target is unchanged. In words: ELISA of unbound rhTNF-alpha after pre-incubation; preparation 1; printed as 7.948e-009 g/ml. Conditions: Fc fusion. A general note: An ELISA detects its analyte on a solid surface through an enzyme-linked reagent.

Chain of Recombinant human TNF-alpha (human) (P01375 77-233): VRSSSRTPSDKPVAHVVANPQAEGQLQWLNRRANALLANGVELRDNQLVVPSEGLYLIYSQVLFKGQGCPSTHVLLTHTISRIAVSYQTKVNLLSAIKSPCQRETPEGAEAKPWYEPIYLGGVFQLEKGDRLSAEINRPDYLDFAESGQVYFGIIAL

Consider PEG20-etanercept (5 eq), for which the IC50 in assay [1] was found to be 4.22 ng/mL; in assay [2], 7.95 ng/mL.
